Experiment: yeast display, Sf9 membrane polyspecificity reagent, FACS + sequencing; frameworks hold sequencing errors
Outline: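 A nanobody's polyreactivity label depends on the gate it was sorted from. Yeast display cells were stained with 10% biotinylated, detergent-solubilized Sf9 membrane reagent for 1 hour at 4 °C, enriched on streptavidin microbeads and sorted by FACS. The low and high (top ~1%) gates were set on anti-HA fluorescence for expression and streptavidin fluorescence for reagent binding.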

Sequence	polyreactivity (PSR sort gate)
QVQLVESGGGLVQAGGSLRLSCAASGSTFWGYALGWYRQAPGKERELVASIRRGASTTYADSVKGRFTISRDNAKNTVYLQMNSLKPEDSAVYYCAKPGYFRSHDYWGQGTQVTVSS	low polyreactivity
QVQLVESGGGLVQAGGSLRLSCAASGSTFWGYVMGWYRQAPGKERELVAAITGSGGSTYYADSVKGRFTISRDNAKNTVYLQMNSLKPEDTAVYYCAAAWSKSTSRRYGYWGQGTQVTVSS	low polyreactivity
QVQLVESGGGLVQAGGSLRLSCAASGSTFWIYAMGWYRQAPGKERELVAAISWSTGRTYYADSVKGRFTISRDNAKNTVYLQMNSLKPEDTAVYYCNAGPQHNTLKLFYYWGQGTQVTVSS	low polyreactivity
QVQLVESGGGLVQAGGSLRLSCAASGSTFWKYAMGWYRQAPGKERELVAAINTSGGRTYYADSVKGRCTISRDNAKNTVYLQMNSLKPEDTAVYYCNARQGITYKDGRSIKYDYWGQGTQVTGSS	high polyreactivity
QVQLVESGGGLVQAGGSLRLSCAASGSTFWKYAMGWYRQAPGKERELVAAITRNGGRTFYADSVKGRFTISRDNAKNTVYLQMNSLKPEDTAVYYCNATAGHGYYYWGQGTQVTVSS	high polyreactivity
QVQLVESGGGLVQAGGSLRLSCAASGSTFWKYVMGWYRQAPGKVRELVAAITSRGGSTYADSVKGRFTISRDNAKNTVYLQMNSLKPEDTAVYYCAATKFWYYGYDYWGQGTQVTVSS	low polyreactivity
QVQLVESGGGLVQAGGSLRLSCAASGSTFWLNAMGWYRPAPGKEWEFVAAITVRGGSTYYADSVKGRFTISRDNAKNTVYLQMNSLKPEDTAVYYCNKGSIEKTEMEYWGQGTQVTVSS	low polyreactivity
QVQLVESGGGLVQAGGSLRLSCAASGSTFWLYAMGWYRQAPGKERELVAAISSTGNTNYADSVKGRFTISRDNAKNTVYLQMNSLKPEDTAVYYCAADSWDYDSRMDYWGQGTQVTVSS	low polyreactivity
QVQLVESGGGLVQAGGSLRLSCAASGSTFWNNAMGWYRQAPGKERELVAVINSSGGSTYYADSVKGRFTISRDNAKNTVYLQMNSLKPEDTAVYYCNADATDSYPEKDEHDSWGQGTQVTVSS	low polyreactivity
QVQLVESGGGLVQAGGSLRLSCAASGSTFWPYAMGWCRQAPGKERELVAAITWSGGRTYYADSVKGRFTISRDNAKNTVYLQMYSLKPEDTAVYYCAAYYRQGIAPNGFDYWGQGTQVTVSS	high polyreactivity
QVQLVESGGGLVQAGGSLRLSCAASGSTFWPYAMGWYRQAPGKERELVAAIRVIGGSTYYADSVKGRFTISRDNAKNSVYLQMNSLKPEDTAVYYCNAYRPGGARFYARYRYDYWGQGTQVTVSS	low polyreactivity
QVQLVESGGGLVQAGGSLRLSCAASGSTFWPYAMGWYRQATGKERELVAAISNGGGTKYADSVKGRFTISRDNAKNTVYLQMNSLKPEDTAVYYCAKTLWTGRAWYDYWGQGTQVTVSS	high polyreactivity
QVQLVESGGGLVQAGGSLRLSCAASGSTFWRNALGWYRQAPGKERELVAAITDSGDSTYYADSVKGRFTISRDTAKNTVYLQMHSLKPEDTAVYYCAVDKLSLYGWDEYWGQGTQVTVSS	low polyreactivity
QVQLVESGGGLVQAGGSLRLSCAASGSTFWRYAMGWYRQAPGKERELVAAITSSGDRTYYADSVKGRFTISRDNAKNTVYLQMNSLKPEDTAVYYCAAALWSSRGYYYAYYYWGQGTQVTVSS	high polyreactivity
QVQLVESGGGLVQAGGSLRLSCAASGSTFWSYAIGWYRQAPGKERELVATISAGGGSTSYADSVKGRFTISRDNAKNTVYLQMNSLKPEDTAVYYCATGYSDSSRYGGYYKFDYWGQGTQVTVSS	low polyreactivity
QVQLVESGGGLVQAGGSLRLSCAASGSTFWSYAMGWYRQAPGKERELVAVITWSGGSTNYADSVKGRFTISRDNAKNTVYLQMNSLKPEDTAVYYCNAPYYFWSYIYDYLGQGTQVTVSS	low polyreactivity
QVQLVESGGGLVQAGGSLRLSCAASGSTFWSYTMGWYRQAPGKEREWVAAISRSGGSTYYADSVKGRFTISRDNAKNTVYLQLNSLKPEDTAVYYCAAADRYGSRYYYWGQGTQVTVSS	high polyreactivity
QVQLVESGGGLVQAGGSLRLSCAASGSTFWVYAMGWYRPAPGKERELVAAIDYSGGSTYYADSVKGRFTISRDNAKNTVYLQMNSLKPEDTAVYYGAAGEGQYWLWDGEGEYDYWGQGTQVTVSS	low polyreactivity
QVQLVESGGGLVQAGGSLRLSCAASGSTFWYAMGWYRQAPGKERELVAAITARGGRTYYADSVKGRFTISRDNAKNTVYLQMNSLKPEDTAVYYCAAVSTGIGARYNYWGQGTQVTVSS	high polyreactivity
QVQLVESGGGLVQAGGSLRLSCAASGSTFWYNAMGWYRQAPGKERELVAAISQSGGRTYYADSVKGRFTISRDNAKNTVYLQMNSLKPEDTAVYYCNAVSRDKSLYDYWGQGTQVTVSS	high polyreactivity
QVQLVESGGGLVQAGGSLRLSCAASGSTFWYNAMGWYRQAPGKERELVAAITQSGTRTYYADSVKGRFTISRDNAKNTVFLQMNSLKPEDTAVYYCAAGNAPYYRYGSKKYGYWGQGTQVTVSS	high polyreactivity
QVQLVESGGGLVQAGGSLRLSCAASGSTFWYNAMGWYRQAPGKERELVAAITQSGTRTYYADSVKGRFTISRDNAKNTVYLQMNSLKPEDTAVYYCAARGREWYYWGQGTQVTVSS	high polyreactivity

Sequence	polyreactivity (PSR sort gate)
QVQLVESGGGLVQAGGSLRLSCAASGSTFWYNAMGWYTQAPGKERELVAAITWTGDGTYYADSVKGRFTISRDNAKNTVYLQMNSLKPEDTAVYYCAAAYFQWSTSIVGLDAWYDYWGQGTQVTVSS	low polyreactivity
QVQLVESGGGLVQAGGSLRLSCAASGSTFWYNMGWYRQAPGKERELVAAISYSSGRTYYADSVKGRFTISRDNAKNTVYLQMNSLKPEDTAVYYCAARYPRTRRYGYWGQGTQVTVSS	high polyreactivity
QVQLVESGGGLVQAGGSLRLSCAASGSTFWYYAMGWSRQAPGKERELVAAIRWSDGSTYYADSVKGRFTISRDNAKNTVYLQMNSLKPEDTAVYYCEYYYWGLGTQVTVSS	low polyreactivity
QVQLVESGGGLVQAGGSLRLSCAASGSTFWYYGMGWYRQAPGKERELVAAITRGGSTYYADSVKGRFTISRDNAKNTVYLQMNSLKPEDTAVYYCAAGISVRWSPSYYYWGQGTQVTVSS	high polyreactivity
QVQLVESGGGLVQAGGSLRLSCAASGSTFWYYVMGWYRQAPGKERELVAAISTRGDSTYYADSVKGRFTISRDNAKITVYFQMNSLKPEDTAVFDCAKSRQYSGRVRFDYWGKGTQVTVSS	low polyreactivity
QVQLVESGGGLVQAGGSLRLSCAASGSTFYANAMGWYRQAPGKERELVAAISYSGGGTNYADSVKGRFTISRDNAKNTVYLQMISLKPEDTAVYYCAKRRDYDRYRYKKTSSVRGDYWGQGTQVTVSS	low polyreactivity
QVQLVESGGGLVQAGGSLRLSCAASGSTFYAYAMGWYRQAPGKERELVAAIDSGGSTYYADSVKGRFPISRDNAKNTVYFQMNSLNPEDTAVYYCAVRHRYTRAYWGRDYWGQGTQVTVSS	low polyreactivity
QVQLVESGGGLVQAGGSLRLSCAASGSTFYAYAMGWYRQAPGKERELVAAISSDGTNYADSVKGRFTISRDNAKNTVYLQMNSLKPEDTAVYYCAADEASSRGYYDYDYWGQGTQVTVSS	low polyreactivity
QVQLVESGGGLVQAGGSLRLSCAASGSTFYAYDMGWYRQAPGKERELVAAISSGGSTYYADSVKGRFTISRDNAKNTVYLQMNSLKPEDTAVYYCAPEYTYELEASEPSDYDYWGQGTQVTVSS	low polyreactivity
QVQLVESGGGLVQAGGSLRLSCAASGSTFYAYDMGWYRQAPGKERELVAAISSGGSTYYADSVKGRFTISRDNAKNTVYLQMNSLKPEDTAVYYCATEYTYELEASEPSDYDYWGQGTQVTVSS	low polyreactivity
QVQLVESGGGLVQAGGSLRLSCAASGSTFYAYGMGWYRQAPGKERELVATITWSGGSTYYADSVKGRFTISRDNAKNTVYLQMNSLKPEDTAVYYCAARSPFPTIADGDYWGQGTQVTVSS	low polyreactivity
QVQLVESGGGLVQAGGSLRLSCAASGSTFYAYTMGWYRQAPGKERELVAAITGRGGRTYYADSVKGRFTISRDNAKNTVYLQMNSLKPEDTAVYYCAAVYRKYPYSDYDYWGQGTQVTVSS	high polyreactivity
QVQLVESGGGLVQAGGSLRLSCAASGSTFYDYAMGWYRQAPGKERELVAAITSGGSTDYADSVKGRFTISRDNAKNTVYLQMNSLKPEDTAVYYCATDTDSNYISHQFVWYDYWGQGTQVTVSS	low polyreactivity
QVQLVESGGGLVQAGGSLRLSCAASGSTFYDYDMGWYSQAPGKESELVAAITSGGSTKYADSVKGRFTISRDNAKNTVYLQMNSLKPEDTAVYYCNADSQRPAYWDGYWGQGTKVTVSS	low polyreactivity
QVQLVESGGGLVQAGGSLRLSCAASGSTFYENAKGWYRQAPGKERELVAGISRGGGSTYYADSVKGRFTISRDNAKNTVYLQMNSLKPEDTAVYYCARRPRYGVEYNYWGQGTQVTVSS	low polyreactivity
QVQLVESGGGLVQAGGSLRLSCAASGSTFYFYAMGWYRQAPGKERELVAAITGSGGSTYYADSVKGRFTISRDNAKNTVYLQMNSLKPEDTAVYYCAARFSYWKTKRAYDWGQGTQVTVSS	high polyreactivity
QVQLVESGGGLVQAGGSLRLSCAASGSTFYFYAMGWYRQAPGKERELVATISYSDGSTYYADSVKGRFTISRDNAKNTVYLQMNSLKPEDSAVYYCAKGSNDWVNFGYDYWGQGTQVTVSS	low polyreactivity
QVQLVESGGGLVQAGGSLRLSCAASGSTFYGNAMGWYRQAPGKERELVAAIRWRGGRTYYADSVKGRFTISRDNAKNTVYLQMNSLKPEDTAVYYCNALPGVSHTQYDRVGYWGQGTQVTVSS	high polyreactivity
QVQLVESGGGLVQAGGSLRLSCAASGSTFYGYAKGWYRQAPGKERELVAAITRSGGSTYYADSVKGRFTISRDNAKNTVYLQMNSLKPEDTAVYYCAVATGPVSYRRYYWGQGTQVTVSS	high polyreactivity
QVQLVESGGGLVQAGGSLRLSCAASGSTFYGYAMGRYRQSPGKERELVAAITRSGGSTYYADSVKGRFTISRDNAKNTVYLQMNSLKPEDTEVYYCNKYGYKGGVGYDYWGQGTQVTVSS	high polyreactivity
QVQLVESGGGLVQAGGSLRLSCAASGSTFYGYAMGSYRQAPGKERELVAAISYSGSSTYYADSVKGRFTISRDNAKNTVYLQMNSLKPEDTAVFYCAVDDTHPFGPDGGGDYWGQCTQVTVSS	low polyreactivity
